Results as given in article PMC13218722 (2026).

Biological target: LFA-1 (Homo sapiens, UniProt P20701)
Test: BLI

Sequence of LFA-1 (P20701 26-1170, chain 1 of 2): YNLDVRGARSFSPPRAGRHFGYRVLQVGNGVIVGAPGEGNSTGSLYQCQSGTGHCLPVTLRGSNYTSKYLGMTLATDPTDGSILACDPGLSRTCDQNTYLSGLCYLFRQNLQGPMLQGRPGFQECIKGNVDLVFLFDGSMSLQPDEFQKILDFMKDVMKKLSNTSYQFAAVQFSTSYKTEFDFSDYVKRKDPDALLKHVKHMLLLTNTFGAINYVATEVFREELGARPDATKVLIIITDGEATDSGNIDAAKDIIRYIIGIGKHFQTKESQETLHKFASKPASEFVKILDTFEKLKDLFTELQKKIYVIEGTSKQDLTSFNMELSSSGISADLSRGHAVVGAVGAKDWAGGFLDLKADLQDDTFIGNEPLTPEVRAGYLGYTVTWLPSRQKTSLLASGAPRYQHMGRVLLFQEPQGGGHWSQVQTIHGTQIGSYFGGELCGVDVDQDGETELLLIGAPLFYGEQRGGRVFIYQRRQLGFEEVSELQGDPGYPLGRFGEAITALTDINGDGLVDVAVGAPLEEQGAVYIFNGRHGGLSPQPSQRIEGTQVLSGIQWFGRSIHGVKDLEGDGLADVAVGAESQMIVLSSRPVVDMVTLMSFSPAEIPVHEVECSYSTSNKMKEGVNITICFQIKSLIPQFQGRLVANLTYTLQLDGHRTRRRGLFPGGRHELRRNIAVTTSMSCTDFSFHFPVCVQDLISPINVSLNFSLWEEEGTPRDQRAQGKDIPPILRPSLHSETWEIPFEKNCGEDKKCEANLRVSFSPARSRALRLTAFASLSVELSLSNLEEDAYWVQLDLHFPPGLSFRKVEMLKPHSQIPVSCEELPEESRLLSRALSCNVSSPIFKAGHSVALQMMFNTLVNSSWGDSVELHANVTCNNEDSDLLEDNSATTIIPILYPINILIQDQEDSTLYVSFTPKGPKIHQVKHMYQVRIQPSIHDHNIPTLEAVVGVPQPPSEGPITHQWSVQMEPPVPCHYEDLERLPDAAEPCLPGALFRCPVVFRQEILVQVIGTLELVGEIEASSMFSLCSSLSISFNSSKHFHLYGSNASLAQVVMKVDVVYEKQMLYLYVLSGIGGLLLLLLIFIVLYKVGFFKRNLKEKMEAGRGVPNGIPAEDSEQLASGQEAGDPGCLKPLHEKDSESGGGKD
Sequence of LFA-1 (chain, as listed by the source, chain 2 of 2): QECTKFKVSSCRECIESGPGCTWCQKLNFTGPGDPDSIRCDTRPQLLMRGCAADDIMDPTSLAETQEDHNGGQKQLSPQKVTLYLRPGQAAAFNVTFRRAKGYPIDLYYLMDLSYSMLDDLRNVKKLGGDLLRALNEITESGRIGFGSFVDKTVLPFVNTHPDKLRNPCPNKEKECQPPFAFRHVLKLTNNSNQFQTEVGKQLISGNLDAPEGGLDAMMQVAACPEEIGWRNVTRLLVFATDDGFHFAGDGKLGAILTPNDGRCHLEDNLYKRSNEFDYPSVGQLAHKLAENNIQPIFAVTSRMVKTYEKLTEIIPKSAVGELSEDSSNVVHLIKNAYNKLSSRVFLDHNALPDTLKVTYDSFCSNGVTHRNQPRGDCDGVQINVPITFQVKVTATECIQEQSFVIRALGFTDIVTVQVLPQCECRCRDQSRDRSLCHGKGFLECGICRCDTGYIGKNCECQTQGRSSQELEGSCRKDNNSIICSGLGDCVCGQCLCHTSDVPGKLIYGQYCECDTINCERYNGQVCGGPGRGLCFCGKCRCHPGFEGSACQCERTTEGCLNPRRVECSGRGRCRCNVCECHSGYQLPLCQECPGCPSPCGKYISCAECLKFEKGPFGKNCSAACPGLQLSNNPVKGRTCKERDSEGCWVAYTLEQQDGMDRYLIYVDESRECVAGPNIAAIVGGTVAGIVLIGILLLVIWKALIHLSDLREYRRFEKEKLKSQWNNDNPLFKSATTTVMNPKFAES

B1: GBP-130 ectodomain (protein)
chain: MRLSKVSDIKSTGVSNYKNFNSKNSSKYSLMEVSKKNEKKNSLGAFHSKKILLIFGIIYVVLLNAYICGDKYEKAVDYGFRESRILAEGEDTCARKEKTTLRKSKQKTSTRTVATQTKKDEENKSVVTEEQKVESDSEKQKRTKKVVKKQINIGDTENQKEGKNVKKVIKKEKKKEESGKPEENKHANEASKKQEPKASKVSQKPSTSTRSNNEVKIRAASNQETLTSADPEGQIMREYAADPEYRKHLEIFYKILTNTDPNDEVERRNADNKEDLTSADPEGQIMREYASDPEYRKHLEIFYKILTNTDPNDDVERRNADNKEDLTSADPEGQIMREYAADPEYRKHLEVFHKILTNTDPNDEVERRNADNKEDLTSADPEGQIMREYAADPEYRKHLEVFHKILTNTDPNDEVERRNADNKELTSSDPEGQIMREYAADPEYRKHLEVFHKILTNTDPNDEVERRNADNKEDLTSADPEGQIMREYAADPEYRKHLEVFHKILTNTDPNDEVERRNADNKEDLTSADPEGQIMREYAADPEYRKHLEIFHKILTNTDPNDEVERRNADNKEDLTSADPEGQIMREYAADPEYRKHLEIFYKILTNTDPNDEVERRNADNKEELTSSDPEGQIMREYAADPEYRKHLEIFHKILTNTDPNDEVERRNADNKEDLTSADPEGQIMREYAADPEYRKHLEIFYKILTNTDPNDEVERRNADNKEDLTSADPEGQIMREYASDPEYRKHLEIFYKILTNTDPNDDVERRNADNKEDLTSADPEGQIMREYAADPEYRKHLEVFHKILTNTDPNDEVERQNADNNEA
Kd: 15 nM
